Where only a bound is given, the exact number is not on record here.

Usually Kd stands for the concentration at which binding is half-saturated. Higher therefore signals a looser complex.

What all share (conditions): remark: other sources report otherwise
The target of assay [1] is S1 monomer of SARS-CoV-2 Delta (SARS-CoV-2), P0DTC2.
Assay [2] addresses prefusion-stabilized S trimer of the Delta variant (SARS-CoV-2), P0DTC2.
Assay [3] has as its target prefusion-stabilized S trimer of the Omicron (B.1.529) variant (SARS-CoV-2), P0DTC2.

B1: 3-31 (Fc fusion)
chain: EVQLVESGGGLVQPGGSLRLSCAASGSTFSINAMGWFRQAPGKEREFVAGITSSGGYTNYADSVKGRFTISADNSKNTAYLQMNSLKPEDTAVYYCAADGVPEYSDYASGPVWGQGTLVTVSS
Take B1: the Kd was 1.1 nM in assay [1], below 0.016 nM in assay [2] and 2.1 nM in assay [3].

Values taken from patent publication US20230257448A1 (TWIST BIOSCIENCE, published 2023).
